Laboratory results taken from US8507431B2, “Methods for accelerating wound healing by administration of a preadipocyte modulator or an adipocyte modulator” (HealOr Ltd., priority 2003, dated 2013).

B1: adiponectin (protein, UniProt Q15848 19-244, looked up)
Adiponectin: ETTTQGPGVLLPLPKGACTGWMAGIPGHPGHNGAPGRDGRDGTPGEKGEKGDPGLIGPKGDIGETGVPGAEGPRGFPGIQGRKGEPGEGAYVYRSAFSVGLETYVTIPNMPIRFTKIFYNQQNHYDGSTGKFHCNIPGLYYFAYHITVYMKDVKVSLFKKDKAMLFTYDQYQENNVDQASGSVLLHLEVGDQVWLQVYGEGERNGLYADNDNDSTFTGFLLYHDTN
notes: adipokine
B2: visfatin (protein, UniProt P43490 1-491, looked up)
Nicotinamide …: MNPAAEAEFNILLATDSYKVTHYKQYPPNTSKVYSYFECREKKTENSKLRKVKYEETVFYGLQYILNKYLKGKVVTKEKIQEAKDVYKEHFQDDVFNEKGWNYILEKYDGHLPIEIKAVPEGFVIPRGNVLFTVENTDPECYWLTNWIETILVQSWYPITVATNSREQKKILAKYLLETSGNLDGLEYKLHDFGYRGVSSQETAGIGASAHLVNFKGTDTVAGLALIKKYYGTKDPVPGYSVPAAEHSTITAWGKDHEKDAFEHIVTQFSSVPVSVVSDSYDIYNACEKIWGEDLRHLIVSRSTQAPLIIRPDSGNPLDTVLKVLEILGKKFPVTENSKGYKLLPPYLRVIQGDGVDINTLQEIVEGMKQKMWSIENIAFGSGGGLLQKLTRDLLNCSFKCSYVVTNGLGINVFKDPVADPNKRSKKGRLSLHRTPAGNFVTLEEGKGDLEEYGQDLLHTVFKNGKVTKSYSFDEIRKNAQLNIELEAAHH
notes: insulin-mimetic hormone secreted from visceral adipose tissue
B3: IL-4: adipokine hIL-4 (protein, UniProt P05112 25-153, looked up)
Interleukin-4: HKCDITLQEIIKTLNSLTEQKTLCTELTVTDIFAASKNTTEKETFCRAATVLRQFYSHHEKDTRCLGATAQQFHRHKQLIRFLKRLDRNLWGLAGLNSCPVKEANQSTLENFLERLKTIMREKYSKCSS

What was measured:
[1] = system: Full thickness wounds on the back of C57BL mice; assay: Wound healing assay, full thickness incision wounds in mice; type: in vivo
Experimental: […] […] Wound biopsies were sampled, processed and analyzed morphologically and/or histochemically and/or immunohistochemically for various wound healing parameters, i.e., wound contraction, adipocytes migration and differentiation, epidermal migration, and epidermal closure.
The wound area was measured and compared to untreated control wounds; and wound contraction was calculated as the percent reduction of the wound area.
Wound biopsies were fixed in 4% paraformaldehyde then dehydrated in increasing concentrations of ethanol (50-100%). The dehydrated preparations were immersed first in xylene, then paraffin and xylene 1:1 solution, then in pure melted paraffin (60° C.). The paraffin blocks were then sectioned by a microtome and the sections were mounted on Super Frost^+™ slides.
Paraffin embedded wound-section slides were incubated at 60° C. for 60 minutes and were de-parafinated by washing the slides twice with toluene (100%) for 10 minutes, then rehydrated in decreasing concentration of ethanol (100-50%) for 5 minutes each. The slides were stained with hematoxylin (ready to use solution) for 10 minutes, rinsed with water, stained with eosin (0.5% in DDW) for 5 minutes, and then washed with 70% ethanol by 2 quick immersions. Thereafter, the slides were dehydrated by washing once with 95% ethanol for 2 minutes, twice with 100% ethanol for 5 minutes, and twice with xylene (100%) for 10 minutes, then mounted with entellan (MERCK Darmstadt Germany).
Paraffin embedded wound-section slides were de-parafinated as described for H&E staining above and incubated in blocking solution (5% BSA and 0.5% Tween 20™ in PBS) for 1 hour. […]
The effect of inhibiting or enhancing the activity of PPARγ using PPARγ antogonist and agonist, respectively, on wound healing was also evaluated in vivo. […]
The effect of adipsin (complementing Factor D, which is secreted from adipocytes) on wound healing was evaluated in vivo. […] The mice were sacrificed 6 days after wounding and the wounds were then analyzed. […]

primary skin fibroblasts = assay: Fibroblasts scratch migration assay in vitro; type: cell-based; conditions: 24 hrs; for fibroblasts migration to close the wound gap vs non-treated and insulin: hIL-8 5 ng/ml, hIL-1β 0.2 ng/ml, hIL-4 2 ng/ml, apelin 0.2 μg/ml, adiponectin 1 μg/ml
Experimental: Primary skin fibroblasts were isolated and plated on 5 ml non-coated dishes until confluence in low Ca^2+ medium, and an artificial crossover scratch was formed in each dish with a 200 μm tip. Cells were either non-treated (control) or treated with insulin (0.1 unit/ml), hIL-8 (5 ng/ml), hIL-1β (0.2 ng/ml), hIL-4 (2 ng/ml), apelin (0.2 μg/ml) or adiponectin (1 μg/ml); and collected after 24 hrs.
Primary keratinocytes/fibroblasts were isolated and plated on 5 ml non-coated dishes until confluence in low Ca^2+ medium, and an artificial cross-over scratch was formed in each dish with a 200 μm tip. Then, cells were either non-treated or treated with visfatin (0.1 μg/ml or 0.0.1 μg/ml) or insulin (0.1 unit/ml) for up to 48 hrs.

primary keratinocytes [2] = assay: Keratinocytes migration (wound scratch) assay in vitro; type: cell-based, murine
Experimental: (§1) Primary keratinocytes were isolated from newborn skin as described in reference 18. Keratinocytes were cultured in Eagle's Minimal Essential Medium (EMEM) containing 8% Chelex (Chelex-100, BioRad) treated fetal bovine serum. To maintain a proliferative basal cell phenotype, the final Ca^2+ concentration was adjusted to 0.05 mM. Experiments were performed five to seven days after plating.
Primary mouse keratinocytes were untreated or treated with, PPARγ antagonist GW9662 (μM) or PPARγ agonist troglitazone (μM). Wound Scratch Assay was performed 24 hours following treatment, and representative fields were photographed immediately after the wounding (Day 0) and 48 hours later (Day 2). The average of wound closure represented as percentage in comparison to the initial width of the wound scratch (% of wound closure).
The effect of inhibiting or enhancing the activity of peroxisome proliferators-activated receptor gamma (PPARγ) on keratinocytes migration was evaluated utilizing the in vitro migration assay. Thus, primary keratinocytes were isolated and plated on 5 ml non-coated dishes until confluence in low Ca^2+ medium, and an artificial crossover scratch was formed in each dish with a 200 μm tip. Cells were either non-treated (control) or treated daily with PPARγ modulators.
In order to test the effect of different adipokines on keratinocyte migration to close the wound gap, an in vitro scratch assay was used. Thus, primary keratinocytes were isolated and plated on 5 ml non-coated dishes until confluence in low Ca^2+ medium, and an artificial crossover scratch was formed in each dish with a 200 μm tip. Cells were either non-treated (control) or treated daily with insulin (0.1 unit/ml), hIL-4 (2 ng/ml), hIL-6 (0.2 ng/ml), leptin (4 μg/ml) or apelin (0.02 μg/ml or 0.2 μg/ml).
Primary keratinocytes/fibroblasts were isolated and plated on 5 ml non-coated dishes until confluence in low Ca^2+ medium, and an artificial cross-over scratch was formed in each dish with a 200 μm tip. […]

primary keratinocytes [3] = assay: Western blot analysis for PCNA expression (proliferation marker); type: cell-based, murine; conditions: visfatin 0.01 μg/ml, 24 hrs post treatment
Experimental: as §1
Primary keratinocytes were isolated, plated on 100 mm tissue dishes and maintained for 5 days in medium with low Ca^+ (0.05 mM) until 80% confluence. Then, cells were either non-treated (control) or treated with insulin (0.1 unit/ml, 1 μM) or visfatin (0.01 μg/ml or 0.1 μg/ml). 24 hrs post treatment cells were lyzed and analyzed for PCNA expression by western blot analysis.

primary keratinocytes [4] = assay: Thymidine incorporation assay; type: cell-based, murine
Experimental: as §1
Primary keratinocytes were isolated, plated on 6 well tissue dishes and maintained for 5 days in medium with low Ca^2+ (0.05 mM) until 80% confluence. Then, cells were either non-treated (control) or treated with visfatin (0.1 μg/ml or 0.01 μg/ml) for 24 hrs. 6 hrs post treatment Ca^2+ mM was added to the medium, and the next day, cells were pulsed with [^3H]thymidine (1 uCi/ml) for 1 hour. After incubation, cells were washed three times with PBS and 5% trichloroacetic acid (TCA) was added into each well for 1 hour. The solution was then removed and cells were stabilized in 1M NaOH. The labeled thymidine incorporated into the cells was counted in a ^3H-window of a Tricarb liquid scintillation counter.

primary keratinocytes [5] = assay: Differentiation assay for Keratin 1 (western blot); type: cell-based, murine; conditions: visfatin 0.01 or 0.1 μg/ml, 24 hrs; vs non treated and insulin treated cells
Experimental: as §1
Primary keratinocytes were isolated, plated on 100 mm tissue dishes and maintained for 5 days in medium with low Ca^2+ (0.05 mM) until 80% confluence. Then, cells were either non-treated (control) or treated with insulin (0.1 unit/ml, 1 μM) or visfatin (0.01 μg/ml or 0.1 μg/ml). 24 hrs post treatment cells were lysed and analyzed for K1 (Keartin 1) expression by western blot analysis.

primary keratinocytes [6] = assay: Differentiation assay for filaggrin (western blot); type: cell-based, murine; conditions: visfatin 0.01 and 0.1 μg/ml, 24 hrs
Experimental: as §1
Primary keratinocytes were isolated, plated on 100 mm tissue dishes and maintained for 5 days in medium with low Ca^2+ (0.05 mM) until reaching 80% confluence. Then, cells were either non-treated (control) or treated with visfatin (0.01 μg/ml or 0.1 μg/ml). Terminal differentiation was induced by adding Ca^2+ to the medium 6 hrs post treatment. 24 hrs post treatment cells were lysed and analyzed for filaggrin expression by western blot analysis.

[7] = visfatin 0.01 μg/ml daily for 7 days

Row | Molecule | healing parameters (epidermal closure, dermal contraction, matrix remodeling) ([1]; adiponectin 1 μg/ml daily for 7 days, 20 mm incision, H&E and Masson Trichrome) | fibroblasts migration to close the wound gap vs non-treated and insulin (primary skin fibroblasts) | adipocytes at the wound site [1, 7] | inflammation in the wound [1, 7] | migration of keratinocytes relative to controls (primary keratinocytes [2]; visfatin 0.1 μg/ml or 0.01 μg/ml, up to 48 hrs) | migration of keratinocytes (primary keratinocytes [2]; visfatin 0.1 μg/ml, 48 hrs) | fibroblast migration and proliferation (primary skin fibroblasts; visfatin 0.01 μg/ml, insulin 0.1 unit/ml as comparison) | PCNA expression levels in keratinocytes (primary keratinocytes [3]) | proliferation rate under conditions promoting cell differentiation (primary keratinocytes [4]; Ca2+ 0.12 mM addition to the medium, visfatin 0.1 or 0.01 μg/ml) | thymidine incorporation (proliferation) (primary keratinocytes [4]; visfatin 0.01 μg/ml vs 0.1 μg/ml and controls, 24 hrs) | keratinocyte differentiation (Keratin 1 expression) (primary keratinocytes [5]) | filaggrin levels (terminal differentiation) (primary keratinocytes [6]) | keratinocyte migration in scratch assay vs control and insulin (primary keratinocytes [2]; treated daily, 24 and 48 hrs, hIL-4 2 ng/ml, apelin 0.2 μg/ml)
1 | B1 | better healing parameters | promoted fibroblasts migration to completely close the wound gap | – | – | – | – | – | – | – | – | – | – | –
2 | B2 | – | – | attracts adipocytes to the wound site | reduces inflammation | does not halt or interfere with migration of keratinocytes | induced migration in keratinocytes though not significantly | promotes fibroblast migration and proliferation to the extent of insulin treatment | significantly decreased | inhibited even further | lower thymidine incorporation than the higher dose (0.1 μg/ml) and controls | promotes keratinocyte differentiation primarily terminal differentiation | marked elevation in filaggrin levels | –
3 | B3 | – | did not induce any additional effect compared to controls | – | – | – | – | – | – | – | – | – | – | keratinocyte migration was highly significant
